Three molecules from paper PMC9335043, “The novel ZmTCP7 transcription factor targets AGPase-encoding gene ZmBt2 to regulate storage starch accumulation in maize” can be followed below.

The target of series [1] is T1, GST-ZmTCP7 (Zea mays, UniProt B4FHV6 1-275).
T1 sequence: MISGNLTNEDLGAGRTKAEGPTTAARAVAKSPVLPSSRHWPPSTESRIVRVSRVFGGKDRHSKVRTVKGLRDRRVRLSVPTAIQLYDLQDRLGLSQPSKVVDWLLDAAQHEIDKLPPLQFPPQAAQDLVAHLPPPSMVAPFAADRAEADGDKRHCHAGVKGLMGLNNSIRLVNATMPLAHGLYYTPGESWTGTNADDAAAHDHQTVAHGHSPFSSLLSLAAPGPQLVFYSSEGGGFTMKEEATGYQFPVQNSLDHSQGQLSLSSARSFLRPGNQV
The series can be described thus: EMSA; LightShift chemiluminescent EMSA kit buffer (composition and pH not stated), 25 C, 30 min, 8% PAGE. The settings on record: protein: recombinant; tags: N-terminal GST (pGEX-6-1); chain copies: 2; label: 3' biotin.

Series [2] addresses T1, GST-ZmTCP7. The series can be described thus: competition; unlabeled competitor vs PWT: considerably reduced at 50x, almost completely removed at 100x; LightShift chemiluminescent EMSA kit buffer (composition and pH not stated), 25 C, 30 min, 8% PAGE. Particulars: protein: recombinant; tags: N-terminal GST (pGEX-6-1); chain copies: 2.

B1: PMu (mutated ZmBt2 promoter 30 bp probe) (dsDNA)
DNA 1: CACACTTTAGAAAAAACAGCCTTTACCTAA
DNA 2: TTAGGTAAAGGCTGTTTTTTCTAAAGTGTG
Take B1: in series [1], the binding result was “no binding”.

B2: unlabeled WT 30 bp competitor (dsDNA)
DNA 1: CACACTTTAGAACCCCACGCCTTTACCTAA
DNA 2: TTAGGTAAAGGCGTGGGGTTCTAAAGTGTG
Consider B2, for which the binding result in series [2] is given as “binds”.

B3: PWT (ZmBt2 promoter 30 bp probe) (dsDNA)
DNA 1: CACACTTTAGAACCCCACGCCTTTACCTAA
DNA 2: TTAGGTAAAGGCGTGGGGTTCTAAAGTGTG
Turning to B3, the binding result in series [1] is given as “binds”.
